Test results taken from patent US20120141464A1 (ZENYTH OPERATIONS, published 2012).
Changes are numbered by the printed parent chain. One block for each binder: values may come before it.

How the values were obtained:
cynomolgus GM-CSFRα = cynomolgus GM-CSFRα (cynomolgus); test: cell-based or functional assay
human GM-CSFRα [1] = target: T1, human GM-CSFRα (human, UniProt P15509 23-400); test: cell-based or functional assay
T1 sequence: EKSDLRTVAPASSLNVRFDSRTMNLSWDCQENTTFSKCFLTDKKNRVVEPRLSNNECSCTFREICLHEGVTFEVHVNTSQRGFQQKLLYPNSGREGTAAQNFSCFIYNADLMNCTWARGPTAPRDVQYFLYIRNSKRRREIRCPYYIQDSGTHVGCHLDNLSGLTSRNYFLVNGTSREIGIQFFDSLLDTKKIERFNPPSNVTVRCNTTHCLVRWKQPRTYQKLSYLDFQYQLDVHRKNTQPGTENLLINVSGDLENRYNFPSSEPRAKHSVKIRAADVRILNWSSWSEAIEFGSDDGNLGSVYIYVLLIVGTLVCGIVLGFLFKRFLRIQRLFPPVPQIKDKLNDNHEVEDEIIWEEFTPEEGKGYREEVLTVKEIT

human GM-CSFRα [2] = target: T1, human GM-CSFRα; test: cell-based or functional assay; remark: listed apart in the source
[3] = target: T2, recombinant purification-tagged human GM-CSF receptor α extracellular domain (human, UniProt P15509 23-320); test: SPR (BIAcore 2000); IgG4 captured on protein A, tagged receptor ECD as analyte; 1:1 Langmuir fit
T2 construct: Amino acids 1 to 298 of the mature receptor; also called purified GM-CSFRα extracellular domain; soluble extracellular domain of GM-CSFRα; not shown: N-terminal purification tag; Flag-tagged
T2 sequence: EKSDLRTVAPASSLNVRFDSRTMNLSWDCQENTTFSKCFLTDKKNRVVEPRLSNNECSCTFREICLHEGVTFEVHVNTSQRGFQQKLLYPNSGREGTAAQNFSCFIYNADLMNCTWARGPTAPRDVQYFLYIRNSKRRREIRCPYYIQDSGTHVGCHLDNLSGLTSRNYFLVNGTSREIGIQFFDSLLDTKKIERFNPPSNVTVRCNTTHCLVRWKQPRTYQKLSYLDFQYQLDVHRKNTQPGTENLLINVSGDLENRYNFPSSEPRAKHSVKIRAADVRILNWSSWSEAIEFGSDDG

human GM-CSFRα [4] = target: T1, human GM-CSFRα; test: cell-based or functional assay; remark: listed apart in the source
human GM-CSFRα [5] = target: T1, human GM-CSFRα; test: cell-based or functional assay; remark: listed apart in the source

B1: Antibody 3 (28G5), parent antibody (antibody, V domains shown)
VH: QVQLVQSGAEVKKPGASVKVSCKISGHSLSELSIHWVRQTPTKGFEWMGGFDPEENEIVYAQRFQGRVTMTEDTSIDTAYLTLSSLRSDDTAVYYCSIVGSFSGWAFDYWGKGTMVTVSS
VL: QAVLTQPSSVSGAPGQRVTISCTGSGSNIGAPYDVSWYQQLPGTAPKLLIYHNNKRPSGVPDRFSASKSGTSASLAITGLQADDEADYYCQSYDSSLSGSVFGGGTKVTVL
IC50, cynomolgus granulocyte shape change assay (cynomolgus GM-CSFRα): ~5000 pM

B2: Antibody 6, non-germlined IgG4 (antibody, V domains shown)
VH: B1 VH with G104P, W105L, A106T, F107L, D108G, Y109L
VL: B1 VL with Q91A, S92T, Y93V, D94E, S95A, S96G, V108L
IC50, TF-1 proliferation assay (7 pM human GM-CSF) (human GM-CSFRα [1]): 0.97 pM | IC50, human granulocyte shape change assay (7 pM human GM-CSF) (human GM-CSFRα [2]): 13.3 pM | Kd [3]: 139 pM | IC50, monocyte TNFα release assay (1 nM human GM-CSF) (human GM-CSFRα [4]): 43 pM

B4: Antibody 8 (antibody, V domains shown)
VH: B1 VH with S97A, G104P, W105P, F107Y, D108R, Y109P
VL: B1 VL
notes: also called Antibody 08; Ab8
IC50, TF-1 proliferation assay (7 pM human GM-CSF) (human GM-CSFRα [1]): 34.5 pM | Kd [3]: 552 pM

B7: Antibody 11 (antibody, V domains shown)
VH: B1 VH with G15E, S25P, S97A, G104P, W105I, A106T, F107Y, D108G, Y109L
VL: B1 VL with A13V
IC50, TF-1 proliferation assay (7 pM human GM-CSF) (human GM-CSFRα [1]): 9 pM | IC50, human granulocyte shape change assay (7 pM human GM-CSF) (human GM-CSFRα [2]): 90 pM

B8: Antibody 5 (antibody, V domains shown)
VH: B1 VH with S97A, W105Y, A106P, F107Y, D108R, Y109P, K112Q
VL: B1 VL
notes: also called Antibody 05; Ab5
IC50, TF-1 proliferation assay (7 pM human GM-CSF) (human GM-CSFRα [1]): 9.3 pM | IC50, human granulocyte shape change assay (7 pM human GM-CSF) (human GM-CSFRα [2]): 30 pM | Kd [3]: 847 pM | IC50, monocyte TNFα release assay (1 nM human GM-CSF) (human GM-CSFRα [4]): 67 pM

B11: Antibody 4 (antibody, V domains shown)
VH: B1 VH with S97A, G104P, W105P, A106T, F107Y, D108G
VL: B1 VL
notes: also called Antibody 04; Ab4
IC50, TF-1 proliferation assay (7 pM human GM-CSF) (human GM-CSFRα [1]): 48 pM | Kd [3]: 4070 pM

B12: Antibody 15 (antibody, V domains shown)
VH: B1 VH with V99A, F102I, S103P
VL: B1 VL with S96Q, S98I, G99S, S100A, V101A
notes: also called Ab15
IC50, TF-1 proliferation assay (7 pM human GM-CSF) (human GM-CSFRα [1]): 164 pM | Kd [3]: 1030 pM

B13: Antibody 10 (antibody, V domains shown)
VH: B1 VH with S97A, W105L, F107Y, D108R, Y109P, V118I
VL: B1 VL
notes: also called Ab10
IC50, TF-1 proliferation assay (7 pM human GM-CSF) (human GM-CSFRα [1]): 55.3 pM | IC50, human granulocyte shape change assay (7 pM human GM-CSF) (human GM-CSFRα [2]): 62 pM | Kd [3]: 1500 pM | IC50, monocyte TNFα release assay (1 nM human GM-CSF) (human GM-CSFRα [4]): 139 pM

B16: Antibody 7 (antibody, V domains shown)
VH: B1 VH with S97A, W105P, A106V, F107Y, D108G, Y109L
VL: B1 VL
notes: also called Antibody 07; Ab7
IC50, TF-1 proliferation assay (7 pM human GM-CSF) (human GM-CSFRα [1]): 93.8 pM | Kd [3]: 3930 pM

B17: Antibody 9 (antibody, V domains shown)
VH: B1 VH with S97A, G104P, W105V, A106T, F107Y, D108G, Y109L, K112Q
VL: B1 VL
IC50, TF-1 proliferation assay (7 pM human GM-CSF) (human GM-CSFRα [1]): 40.8 pM | IC50, human granulocyte shape change assay (7 pM human GM-CSF) (human GM-CSFRα [2]): 44 pM | IC50, monocyte TNFα release assay (1 nM human GM-CSF) (human GM-CSFRα [4]): 74 pM

B18: Antibody 6 (as listed; germlining state in the experiment not stated) (antibody, V domains shown)
VH: QVQLVQSGAEVKKPGASVKVSCKVSGYTLTELSIHWVRQAPGKGLEWMGGFDPEENEIVYAQRFQGRVTMTEDTSTDTAYMELSSLRSEDTAVYYCAIVGSFSPLTLGLWGQGTMVTVSS
VL: QSVLTQPPSVSGAPGQRVTISCTGSGSNIGAPYDVSWYQQLPGTAPKLLIYHNNKRPSGVPDRFSGSKSGTSASLAITGLQAEDEADYYCATVEAGLSGSVFGGGTKLTVL
IC50, cynomolgus granulocyte shape change assay (7 pM human GM-CSF) (cynomolgus GM-CSFRα): 1.73 pM | IC50, colony formation assay (10 ng/ml human GM-CSF) (human GM-CSFRα [5]): ~0.08 µg/mL

More lines, in order of falling Kd [3], values ahead:

IC50, TF-1 proliferation assay (7 pM human GM-CSF) (human GM-CSFRα [1]): 246 pM | Kd [3]: 3020 pM
B9: Antibody 12 (antibody, V domains shown)
VH: B1 VH
VL: B1 VL with S96E, L97P, S98T, G99E, S100I, V101R, V108L
notes: also called Ab12

IC50, TF-1 proliferation assay (7 pM human GM-CSF) (human GM-CSFRα [1]): 12.8 pM | IC50, human granulocyte shape change assay (7 pM human GM-CSF) (human GM-CSFRα [2]): 16 pM | Kd [3]: 1140 pM
B5: Antibody 16 (antibody, V domains shown)
VH: B1 VH with G104P, W105L, A106T, F107M, D108G, Y109L
VL: B1 VL with D83E, Q91A, S92T, Y93S, S95E, S96I
notes: also called Ab16

IC50, TF-1 proliferation assay (7 pM human GM-CSF) (human GM-CSFRα [1]): 16.3 pM | Kd [3]: 502 pM
B10: Antibody 14 (antibody, V domains shown)
VH: B1 VH with V99L, F102V, S103T, G104A
VL: B1 VL with S96E, L97D, S98R, G99M, S100T, V101E
notes: also called Ab14

IC50, TF-1 proliferation assay (7 pM human GM-CSF) (human GM-CSFRα [1]): 23.8 pM | Kd [3]: 388 pM
B3: Antibody 19 (antibody, V domains shown)
VH: B1 VH with S97A, F102V, G104R, W105I, A106T, F107Y, D108G, Y109F
VL: B1 VL with S96R, L97N, S98P, G99H, S100V, V101I, V108L
notes: also called Ab19

IC50, TF-1 proliferation assay (7 pM human GM-CSF) (human GM-CSFRα [1]): 15 pM | IC50, cynomolgus granulocyte shape change assay (7 pM human GM-CSF) (cynomolgus GM-CSFRα): 3.2 pM | IC50, human granulocyte shape change assay (7 pM human GM-CSF) (human GM-CSFRα [2]): 20.7 pM | Kd [3]: 376 pM | IC50, monocyte TNFα release assay (1 nM human GM-CSF) (human GM-CSFRα [4]): 103 pM
B14: Antibody 2 (antibody, V domains shown)
VH: B1 VH with W105P, F107L, D108R, Y109P
VL: B1 VL
notes: also called Antibody 02; Ab2

IC50, TF-1 proliferation assay (7 pM human GM-CSF) (human GM-CSFRα [1]): 14.3 pM | Kd [3]: 193 pM
B15: Antibody 17 (antibody, V domains shown)
VH: B1 VH with G104P, W105L, A106T, F107M, D108G, Y109L
VL: B1 VL with Q91A, S92T, Y93V, D94E, S95D, S96G
notes: also called Ab17

IC50, TF-1 proliferation assay (7 pM human GM-CSF) (human GM-CSFRα [1]): 9.8 pM | IC50, human granulocyte shape change assay (7 pM human GM-CSF) (human GM-CSFRα [2]): 7.8 pM | Kd [3]: 127 pM
B6: Antibody 20 (antibody, V domains shown)
VH: B1 VH with G104P, W105L, A106T, F107L, D108G, Y109L
VL: B1 VL with Q91A, S92T, Y93V, S95E, S96A
notes: also called Ab20
